Measured values from PMC6021441, “Structural basis of the correct subunit assembly, aggregation, and intracellular degradation of nylon hydrolase” (Scientific Reports, 2018).
Several values for one entry are separate records, joined by “and”; a condition that tells them apart may be missing. Identical values can stand only once.

B1: nylon hydrolase NylCp2 (wild type, Arthrobacter plasmid pOAD2-encoded NylC), active enzyme: alpha-beta heterodimer (enzyme)
chain 1: MNTTPVHALTDIDGGIAVDPAPRLAGPPVFGGPGNDAFDLAPVRSTGREMLRFDFPGVSIGAAHYEEGPTGATVIHIPAGARTAVDARGGAVGLSGGYDFNHAICLAGGAGYGLEAGAGVSDALLERLEHRTGFAELQLVSSAVIYDFSARSTAVYPDKALGRAALEFAVPGEFPQGRAGAGMSASAGKVDWDRTEITGQGAAFRRLGDVRILAVVVPNPVGVIVDRAGTVVRGNYDAQTGVRRHPVFDYQEAFAEQVPPVTEAGN
chain 2: TTISAIVTNVRMSPVELNQFAKQVHSSMHRGIQPFHTDMDGDTLFAVTTDEIDLPTTPGSSRGRLSVNATALGAIASEVMWDAVLEAGK
notes: NylCp2, alpha subunit (27 kDa) made by autocleavage of the 355-residue precursor between Asn266 and Thr267; NylCp2, beta subunit (9 kDa) made by autocleavage of the 355-residue precursor between Asn266 and Thr267; also called wild-type NylCp2; monomer molecule A-D; source: E. coli JM109, purified (ammonium sulfate fractionation, anion-exchange, gel filtration)
B2: NylCp2-G^122Y^130A^36Q^263 mutant enzyme (D122G/H130Y/D36A/E263Q), alpha-beta heterodimer (enzyme, Arthrobacter)
chain 1: MNTTPVHALTDIDGGIAVDPAPRLAGPPVFGGPGNAAFDLAPVRSTGREMLRFDFPGVSIGAAHYEEGPTGATVIHIPAGARTAVDARGGAVGLSGGYDFNHAICLAGGAGYGLEAGAGVSGALLERLEYRTGFAELQLVSSAVIYDFSARSTAVYPDKALGRAALEFAVPGEFPQGRAGAGMSASAGKVDWDRTEITGQGAAFRRLGDVRILAVVVPNPVGVIVDRAGTVVRGNYDAQTGVRRHPVFDYQEAFAEQVPPVTQAGN
chain 2: TTISAIVTNVRMSPVELNQFAKQVHSSMHRGIQPFHTDMDGDTLFAVTTDEIDLPTTPGSSRGRLSVNATALGAIASEVMWDAVLEAGK
notes: NylCp2 alpha subunit with four substitutions; NylCp2 beta subunit; also called NylC-G^122Y^130A^36Q^263; source: E. coli JM109, purified (ammonium sulfate fractionation, anion-exchange, gel filtration)
B3: nylon hydrolase NylCA (wild type, Agromyces), active enzyme: alpha-beta heterodimer (enzyme)
chain 1: MNTTPVHALTDIDGGIAVDPAPRLAGPPVFGGPGNDAFDLAPVRSTGREMLRFDFPGVSIGAAHYEEGPTGATVIHIPAGARTAVDARGGAVGLSGGYDFNHAICLAGGASYGLEAGAGVSGALLERLEYRTGFAEAQLVSSAVIYDFSARSTAVYPDKALGRAALEFAVPGEFPQGRAGAGMSASAGKVDWDRTEITGQGAAFRRLGDVRILAVVVPNPVGVIMDRAGTVVRGNYDAQTGVRRHPVFDYQEAFAEQVPPVTEAGN
chain 2: TTISAIVTNVRMSPVELNQFAKQVHSSMHRGIQPFHTDMDGDTLFAVTTDEIDLPTTPGSSRGRLSVNATALGAIASEVMWDAVLEAGK
notes: NylCA of Agromyces, alpha subunit; NylCA of Agromyces, beta subunit; source: E. coli clone (plasmid pSKRC4), purified to homogeneity as previously reported
B4: NylCp2-A^137 mutant (L137A), uncleaved precursor (enzyme, Arthrobacter, UniProt Q79F77 1-355, looked up)
chain: MNTTPVHALTDIDGGIAVDPAPRLAGPPVFGGPGNDAFDLAPVRSTGREMLRFDFPGVSIGAAHYEEGPTGATVIHIPAGARTAVDARGGAVGLSGGYDFNHAICLAGGAGYGLEAGAGVSDALLERLEHRTGFAEAQLVSSAVIYDFSARSTAVYPDKALGRAALEFAVPGEFPQGRAGAGMSASAGKVDWDRTEITGQGAAFRRLGDVRILAVVVPNPVGVIVDRAGTVVRGNYDAQTGVRRHPVFDYQEAFAEQVPPVTEAGNTTISAIVTNVRMSPVELNQFAKQVHSSMHRGIQPFHTDMDGDTLFAVTTDEIDLPTTPGSSRGRLSVNATALGAIASEVMWDAVLEAGK
notes: NylCp2 with L137A, obtained as the uncleaved precursor (36 kDa; 355 residues); source: E. coli JM109, purified (ammonium sulfate fractionation, anion-exchange, gel filtration)
B5: NylCp2-G^122A^137 mutant (D122G/L137A), mixture of precursor and alpha and beta subunits (enzyme, Arthrobacter, UniProt Q79F77 1-355, looked up)
chain: MNTTPVHALTDIDGGIAVDPAPRLAGPPVFGGPGNDAFDLAPVRSTGREMLRFDFPGVSIGAAHYEEGPTGATVIHIPAGARTAVDARGGAVGLSGGYDFNHAICLAGGAGYGLEAGAGVSGALLERLEHRTGFAEAQLVSSAVIYDFSARSTAVYPDKALGRAALEFAVPGEFPQGRAGAGMSASAGKVDWDRTEITGQGAAFRRLGDVRILAVVVPNPVGVIVDRAGTVVRGNYDAQTGVRRHPVFDYQEAFAEQVPPVTEAGNTTISAIVTNVRMSPVELNQFAKQVHSSMHRGIQPFHTDMDGDTLFAVTTDEIDLPTTPGSSRGRLSVNATALGAIASEVMWDAVLEAGK
notes: NylCp2 with D122G and L137A; obtained as a mixture of the uncleaved precursor and the alpha (to N266) and beta (from T267) subunits; Written as the one-chain precursor; part of the sample was cleaved at Asn266/Thr267; source: E. coli JM109, purified (ammonium sulfate fractionation, anion-exchange, gel filtration)
B6: NylCp2-Y^130 mutant enzyme (H130Y), alpha-beta heterodimer (enzyme, Arthrobacter)
chain 1: MNTTPVHALTDIDGGIAVDPAPRLAGPPVFGGPGNDAFDLAPVRSTGREMLRFDFPGVSIGAAHYEEGPTGATVIHIPAGARTAVDARGGAVGLSGGYDFNHAICLAGGAGYGLEAGAGVSDALLERLEYRTGFAELQLVSSAVIYDFSARSTAVYPDKALGRAALEFAVPGEFPQGRAGAGMSASAGKVDWDRTEITGQGAAFRRLGDVRILAVVVPNPVGVIVDRAGTVVRGNYDAQTGVRRHPVFDYQEAFAEQVPPVTEAGN
chain 2: TTISAIVTNVRMSPVELNQFAKQVHSSMHRGIQPFHTDMDGDTLFAVTTDEIDLPTTPGSSRGRLSVNATALGAIASEVMWDAVLEAGK
notes: NylCp2 alpha subunit with H130Y; NylCp2 beta subunit; source: E. coli JM109, purified (ammonium sulfate fractionation, anion-exchange, gel filtration)
B7: NylCp2-G^122 mutant enzyme (D122G), alpha-beta heterodimer (enzyme, Arthrobacter)
chain 1: MNTTPVHALTDIDGGIAVDPAPRLAGPPVFGGPGNDAFDLAPVRSTGREMLRFDFPGVSIGAAHYEEGPTGATVIHIPAGARTAVDARGGAVGLSGGYDFNHAICLAGGAGYGLEAGAGVSGALLERLEHRTGFAELQLVSSAVIYDFSARSTAVYPDKALGRAALEFAVPGEFPQGRAGAGMSASAGKVDWDRTEITGQGAAFRRLGDVRILAVVVPNPVGVIVDRAGTVVRGNYDAQTGVRRHPVFDYQEAFAEQVPPVTEAGN
chain 2: TTISAIVTNVRMSPVELNQFAKQVHSSMHRGIQPFHTDMDGDTLFAVTTDEIDLPTTPGSSRGRLSVNATALGAIASEVMWDAVLEAGK
notes: NylCp2 alpha subunit with D122G; NylCp2 beta subunit; also called Gly122 enzyme; source: E. coli JM109, purified (ammonium sulfate fractionation, anion-exchange, gel filtration)
B8: NylCp2-R^122 mutant enzyme (D122R), alpha-beta heterodimer (enzyme, Arthrobacter)
chain 1: MNTTPVHALTDIDGGIAVDPAPRLAGPPVFGGPGNDAFDLAPVRSTGREMLRFDFPGVSIGAAHYEEGPTGATVIHIPAGARTAVDARGGAVGLSGGYDFNHAICLAGGAGYGLEAGAGVSRALLERLEHRTGFAELQLVSSAVIYDFSARSTAVYPDKALGRAALEFAVPGEFPQGRAGAGMSASAGKVDWDRTEITGQGAAFRRLGDVRILAVVVPNPVGVIVDRAGTVVRGNYDAQTGVRRHPVFDYQEAFAEQVPPVTEAGN
chain 2: TTISAIVTNVRMSPVELNQFAKQVHSSMHRGIQPFHTDMDGDTLFAVTTDEIDLPTTPGSSRGRLSVNATALGAIASEVMWDAVLEAGK
notes: NylCp2 alpha subunit with D122R; NylCp2 beta subunit; source: E. coli JM109, purified (ammonium sulfate fractionation, anion-exchange, gel filtration)
B9: NylCp2-K^122 mutant enzyme (D122K), alpha-beta heterodimer (enzyme, Arthrobacter)
chain 1: MNTTPVHALTDIDGGIAVDPAPRLAGPPVFGGPGNDAFDLAPVRSTGREMLRFDFPGVSIGAAHYEEGPTGATVIHIPAGARTAVDARGGAVGLSGGYDFNHAICLAGGAGYGLEAGAGVSKALLERLEHRTGFAELQLVSSAVIYDFSARSTAVYPDKALGRAALEFAVPGEFPQGRAGAGMSASAGKVDWDRTEITGQGAAFRRLGDVRILAVVVPNPVGVIVDRAGTVVRGNYDAQTGVRRHPVFDYQEAFAEQVPPVTEAGN
chain 2: TTISAIVTNVRMSPVELNQFAKQVHSSMHRGIQPFHTDMDGDTLFAVTTDEIDLPTTPGSSRGRLSVNATALGAIASEVMWDAVLEAGK
notes: NylCp2 alpha subunit with D122K; NylCp2 beta subunit; source: E. coli JM109, purified (ammonium sulfate fractionation, anion-exchange, gel filtration)
B10: NylCp2-V^122 mutant enzyme (D122V), alpha-beta heterodimer (enzyme, Arthrobacter)
chain 1: MNTTPVHALTDIDGGIAVDPAPRLAGPPVFGGPGNDAFDLAPVRSTGREMLRFDFPGVSIGAAHYEEGPTGATVIHIPAGARTAVDARGGAVGLSGGYDFNHAICLAGGAGYGLEAGAGVSVALLERLEHRTGFAELQLVSSAVIYDFSARSTAVYPDKALGRAALEFAVPGEFPQGRAGAGMSASAGKVDWDRTEITGQGAAFRRLGDVRILAVVVPNPVGVIVDRAGTVVRGNYDAQTGVRRHPVFDYQEAFAEQVPPVTEAGN
chain 2: TTISAIVTNVRMSPVELNQFAKQVHSSMHRGIQPFHTDMDGDTLFAVTTDEIDLPTTPGSSRGRLSVNATALGAIASEVMWDAVLEAGK
notes: NylCp2 alpha subunit with D122V; NylCp2 beta subunit; source: E. coli JM109, purified (ammonium sulfate fractionation, anion-exchange, gel filtration)
B11: NylCp2-G^122Y^130 mutant enzyme (D122G/H130Y), alpha-beta heterodimer (enzyme, Arthrobacter)
chain 1: MNTTPVHALTDIDGGIAVDPAPRLAGPPVFGGPGNDAFDLAPVRSTGREMLRFDFPGVSIGAAHYEEGPTGATVIHIPAGARTAVDARGGAVGLSGGYDFNHAICLAGGAGYGLEAGAGVSGALLERLEYRTGFAELQLVSSAVIYDFSARSTAVYPDKALGRAALEFAVPGEFPQGRAGAGMSASAGKVDWDRTEITGQGAAFRRLGDVRILAVVVPNPVGVIVDRAGTVVRGNYDAQTGVRRHPVFDYQEAFAEQVPPVTEAGN
chain 2: TTISAIVTNVRMSPVELNQFAKQVHSSMHRGIQPFHTDMDGDTLFAVTTDEIDLPTTPGSSRGRLSVNATALGAIASEVMWDAVLEAGK
notes: NylCp2 alpha subunit with D122G and H130Y; NylCp2 beta subunit; also called NylC-G^122Y^130; source: E. coli JM109, purified (ammonium sulfate fractionation, anion-exchange, gel filtration)

target: nylon hydrolase NylCK (wild type, Kocuria), active enzyme: alpha-beta heterodimer (Kocuria); experiment: AUC; sedimentation velocity (40,000 rpm) and sedimentation equilibrium (14,000 rpm); each NylC enzyme 0.34 mg ml^-1 in phosphate buffer, 20 °C; self-association of the monomer units

Molecule	stoichiometry N
nylon hydrolase NylCK (wild type, Kocuria), active enzyme: alpha-beta heterodimer (from UniProt Q79F77 1-266; Q79F77 267-355)	4

Target: the molecule itself
Experiment: as above

Molecule	stoichiometry N
B1	3 and 2
B2	4
B3	4
B4	2
B5	3

Target: the molecule itself
Experiment: crystal structure; sitting-drop vapor diffusion, ammonium sulfate, 0.1 M HEPES pH 7.5, 0.2 M NaCl, 25% glycerol; space group C222_(1), two molecules (A/B dimer) in the asymmetric unit, tetramer by the crystallographic two-fold axis

Molecule	stoichiometry N
B1	4
B6	4
B7	4
B8	4
B9	4
B10	4
B11	4
